Laboratory results: patent US20220387556A1, “USE OF THE GDF-5 MUTANT FOR THE TREATMENT OF PAIN AND CARTILAGE DESTRUCTION” (Merck Patent GmbH, priority 2019, published 2022)
Like-named read-outs stand apart in the source and are kept apart here.

Columns and labels:
rabbit ACLT+pMx OA model = assay: rabbit ACLT+pMx OA model, static incapacitance test, comparison with Triamcinolone and anti-NGF-antibody (KK-rabbit-17-01); format: in vivo, New Zealand white (NZW) rabbits
Method: (§1) Baseline incapacitance measurement was made 2 times prior to surgery. OA was induced by ACLT+pMx knee surgery in rabbits in the right knee joint in week 0. […] Weight bearing was measured using a contact-free static incapacitance measurement whereby plates measure pressure put on the operated and injected right hindlimb in comparison to the left unoperated hindlimb. Data are percent weight put on the right over the left hindlimb, whereby 50% corresponds to equal loading of both legs and 0% to load on the unoperated left limb only. Effect size was compared to clinically effective Triamcinolone treatment. 1.41 mg Triamcinolone correspond to human equivalent dose calculation based on metabolic body weight, synovial fluid volume and cartilage surface area.
as §1, with “Effect size was compared to clinically effective Triamcinolone treatment. 1.41 mg Triamcinolone correspond to human equivalent dose calculation based on metabolic body weight, synovial fluid volume and cartilage surface area.” left out

[1] = system: primary human meniscus cells; assay: NGF stimulated PGE2 release in primary human meniscus cells; format: cell-based; conditions: 10 ng/ml rhNGF, 2 days; 0.1 μM Dexamethasone, 0.1 μM Triamcinolone, 375 ng/ml anti-betaNGF antibody, 300 ng/ml R399E
Method: Primary meniscus cells from total knee replacement surgeries were freshly prepared one day post-surgery within the frame of an ethical permission. First, skin and muscle were removed to isolate the menisci. The menisci were transferred into a 10 cm dish filled with HAM's F12+1% P/S+1% Amphotericin B. The tissue was cut into small pieces of approximately 3×3 mm and transferred into a sterile beaker for digestion. Digestion was performed for 16 h in 50 ml of a 0.4% Collagenase in HAM's F12+1% P/S+1% Amphotericin solution at 37° C., 7.5% CO2 under constant stirring. After 16 h the solution was pipetted through a 100 μm filter followed by a 40 μm filter and then centrifuged for 5 min at 1400 g. The remaining pellet, containing the cells was resuspended in 20 ml of HAM's F12+1% P/S+1% Amphotericin+10% FCS. Cell number was counted, and cell viability was determined. Finally, 10,000 cells per well were seeded in a 96 well plate. Cells were cultivated up to 1 week to reach confluency. In between medium was exchanged once. […] The effect of the individual compounds was compared to cells which were stimulated with rhNGF only. After 2 days incubation, the supernatant was removed for determination of Prostaglandin E2 (PGE2) in the medium.

BMPR-IB [2] = target: T1, BMPR-IB (Homo sapiens, UniProt O00238); assay: in vitro binding affinity for BMPR-IB
Source text: This can be achieved by specific substitutions of one or more amino acid residues relating to a BMPR-IB and/or BMPR-IA binding site in the amino acid sequence of a GDF-5 related protein.
The binding affinity of GDF-5 related proteins having specific substitutions is compared to the binding affinity of human wild-type GDF-5 related protein, in particular human wild-type GDF-5.

BMPR-IB [3] = target: T1, BMPR-IB; conditions: in vitro; cited from earlier work
BMPR-IA = BMPR-IA (Homo sapiens, UniProt P36894); conditions: in vitro; cited from earlier work
OA patients = conditions: cited from earlier work

T1 sequence (O00238 14-502): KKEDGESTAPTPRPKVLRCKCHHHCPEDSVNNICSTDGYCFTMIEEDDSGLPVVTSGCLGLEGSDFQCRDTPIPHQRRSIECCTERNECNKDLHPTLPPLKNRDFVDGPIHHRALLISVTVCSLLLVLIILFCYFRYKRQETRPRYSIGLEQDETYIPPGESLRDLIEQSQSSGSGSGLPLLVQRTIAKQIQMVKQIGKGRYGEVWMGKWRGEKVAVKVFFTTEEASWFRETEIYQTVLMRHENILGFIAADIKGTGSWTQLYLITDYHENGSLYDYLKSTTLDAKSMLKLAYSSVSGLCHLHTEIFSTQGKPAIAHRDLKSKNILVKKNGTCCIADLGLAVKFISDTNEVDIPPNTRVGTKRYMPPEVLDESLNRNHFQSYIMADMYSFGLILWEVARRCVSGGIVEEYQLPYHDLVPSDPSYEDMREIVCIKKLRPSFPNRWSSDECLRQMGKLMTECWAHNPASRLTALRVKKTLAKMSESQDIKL
Chain of BMPR-IA (P36894 24-532): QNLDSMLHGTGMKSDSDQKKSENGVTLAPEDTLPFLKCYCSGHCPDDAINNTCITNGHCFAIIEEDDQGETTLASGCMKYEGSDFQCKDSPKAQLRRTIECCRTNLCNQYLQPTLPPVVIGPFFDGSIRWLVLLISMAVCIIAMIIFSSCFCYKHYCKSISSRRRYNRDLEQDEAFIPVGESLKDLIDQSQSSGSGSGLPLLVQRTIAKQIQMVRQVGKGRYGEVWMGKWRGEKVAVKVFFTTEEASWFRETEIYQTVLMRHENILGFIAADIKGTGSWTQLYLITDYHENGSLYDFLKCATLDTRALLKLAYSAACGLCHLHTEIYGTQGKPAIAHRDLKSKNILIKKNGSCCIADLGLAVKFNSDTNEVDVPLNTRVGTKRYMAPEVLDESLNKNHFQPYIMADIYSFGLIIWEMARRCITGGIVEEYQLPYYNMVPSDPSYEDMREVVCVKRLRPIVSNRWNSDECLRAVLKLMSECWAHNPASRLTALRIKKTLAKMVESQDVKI

C[C@]12C=CC(=O)C=C1CC[C@H]1[C@@H]3C[C@@H](O)[C@](O)(C(=O)CO)[C@@]3(C)C[C@H](O)[C@@]12F [Triamcinolone]
symptomatic effect compared to placebo (incapacitance) (rabbit ACLT+pMx OA model; 1.41 mg IA in week 1, week 2 post surgery): −11.6% | effect on pain (incapacitance) (rabbit ACLT+pMx OA model; 1.41 mg IA once in week 1, 6 hours after injection): significant effect on pain | rhNGF induced PGE2 in the medium [1]: significantly inhibited

Wild-type GDF-5: morphogen, also known as bone morphogenetic protein-14 (BMP-14) or cartilage-derived morphogenetic protein-1 (CDMP-1)
fold higher affinity for BMPR-IB as compared with BMPR-IA (BMPR-IB [2]): 40- to 120 fold | Kd (BMPR-IB [3]): 0.008 to 0.027 nM | Kd (BMPR-IA): 1 to 1.1 nM

tanezumab: anti-NGF (nerve growth factor) antibody (tanezumab, Pfizer) under clinical development for OA
incidence of RPOA overall (OA patients; tanezumab 2.5 mg arm): 3.2% | incidence of RPOA overall (OA patients; tanezumab 5 mg arm): 6.3%
